The record followed here is patent US20230416343A1.

Where two headings read alike, the source gives them in different places.

The target of assay [1] is SARS-CoV-2 Delta Plus variant S protein expressed on HEK293 cells (SARS-CoV-2) (UniProt P0DTC2).
The target of assay [2] is SARS-CoV-2 Delta variant S protein expressed on HEK293 cells (SARS-CoV-2) (UniProt P0DTC2).
Assay [3] has the same target. The source holds these as a separate data set.
In assay [4] the target is SARS-CoV-2 variant spike protein del 69-79 plus N501Y and D614G on HEK293 cells (SARS-CoV-2) (UniProt P0DTC2).
Assay [5] has as its target SARS-CoV-2 variant spike protein del 69-79 plus N439K on HEK293 cells (SARS-CoV-2) (UniProt P0DTC2).
Assay [6] concerns the target SARS-CoV-2 variant spike protein del 69-79 plus N501Y on HEK293 cells (SARS-CoV-2) (UniProt P0DTC2).
Assay [7] has as its target SARS-CoV-2 variant spike protein del 69-79 plus N439K on HEK293 cells (SARS-CoV-2) (UniProt P0DTC2). The source holds these as a separate data set.

One may read the EC50 as the concentration that produces a half-maximal response. Usually EC50 (read off the curve) stands for the midpoint of the concentration-response curve. For the substance S1D7270LALA antibody (STI-2020), the EC50 was 0.187 µg/mL in assay [1]; 0.105 µg/mL in assay [2]; 0.106 µg/mL in assay [3]; 172 µg/mL in assay [4]; 70 µg/mL in assay [5]. Moreover, the concentration giving a half-maximal response (EC50 (read off the curve)) in assay [6] worked out at 0.09 µg/mL; in assay [7], 0.07 µg/mL.
